Test results as given in PMC7794297.

B1: TrxR 2: recombinant human thioredoxin reductase 2, selenoenzyme (protein, UniProt Q9NNW7 37-524, looked up)
Thioredoxin reductase 2, …: QRDYDLLVVGGGSGGLACAKEAAQLGRKVAVVDYVEPSPQGTRWGLGGTCVNVGCIPKKLMHQAALLGGLIQDAPNYGWEVAQPVPHDWRKMAEAVQNHVKSLNWGHRVQLQDRKVKYFNIKASFVDEHTVCGVAKGGKEILLSADHIIIATGGRPRYPTHIEGALEYGITSDDIFWLKESPGKTLVVGASYVALECAGFLTGIGLDTTIMMRSIPLRGFDQQMSSMVIEHMASHGTRFLRGCAPSRVRRLPDGQLQVTWEDSTTGKEDTGTFDTVLWAIGRVPDTRSLNLEKAGVDTSPDTQKILVDSREATSVPHIYAIGDVVEGRPELTPIAIMAGRLLVQRLFGGSSDLMDYDNVPTTVFTPLEYGCVGLSEEEAVARHGQEHVEVYHAHYKPLEFTVAGRDASQCYVKMVCLREPPQLVLGLHFLGPNAGEVTQGFALGIKCGASYAQVMRTVGIHPTCSEEVVKLRISKRSGLDPTVTGCUG
Q: For B1, which Kobs (5% (mol) catalyst, 2.5% (v/v) DMSO, 190 μM 3, Tris pH 7.8, 6 °C, uncatalyzed 0.014 ± 0.001) is on record?
A: 0.035 ± 0.003 M⁻¹ s⁻¹

Q: What about the “time until total completion of homodimerization” value (5% mol) of the same molecule?
A: 5 days
